Experimental findings from patent US20130039920A1 (SHANGHAI CANCER INSTITUTE, published 2013) are described below.

Values joined by “and” are separate entries in the source; they are usually repeats but may differ in a detail not shown here. Identical values can stand only once.

For assay [1], the target named is T1, recombinant EGFRvIII extracellular region protein (UniProt P00533 25-645).
T1 construct: extracellular domain; also called rEGFRvIIIex; rEGFRvIII
Nature of the assay: non-competitive ELISA on coated rEGFRvIIIex; average of six K values from paired coating concentrations. (An ELISA detects its analyte on a solid surface through an enzyme-linked reagent.)
Experimental: (§1) After the coated buffer was removed, the plates were washed with PBS one time followed by adding with 350 μl of PBS containing 5% of skimmed milk powder and incubating overnight. Then the plates were washed with PBS twice. […] The plates were incubated with antibodies at 37° C. for 1 hour and washed thrice with PBS. Then the plates were added with 100 μL of HRP-labeled goat anti-mouse secondary antibodies, incubated at 37° C. for 1 hour and washed 5 times with PBS followed by incubation with ABTS substrate for 15 min. The absorbance value was determined at 405 nm with a microplate reader. The binding curve was drawn according to the absorbance values to obtain the antibody concentration at half-maximal OD value (OD50%).
(§2) The concentrations are substituted into the formula K=(n−1)/2 (nAb′−Ab) to calculate the affinity constant, wherein, Ab′ and Ab represent the OD50% antibody concentration (mol/L) when the concentrations of antigen is Ag′ and Ag, n=Ag/Ag′. Six K values were obtained by paired comparison and averaged to obtain the final value.

Assay [2] addresses T1, recombinant EGFRvIII extracellular …. The experiment in a line: non-competitive ELISA on coated rEGFRvIIIex; derived from the affinity constant.
Experimental: as §1, §2
Assay [3] has the same target. The experiment in a line: non-competitive ELISA, rEGFRvIIIex coated at 0.625 mg/L; antibody concentration at half-maximal OD.
Experimental: as §1
Assay [4] has the same target. Nature of the assay: non-competitive ELISA, rEGFRvIIIex coated at 2.5 mg/L; antibody concentration at half-maximal OD.
Experimental: as §1
Assay [5] shares this target. Nature of the assay: non-competitive ELISA, rEGFRvIIIex coated at 5.0 mg/L; antibody concentration at half-maximal OD.
Experimental: as §1
The target is the same in assay [6]. Nature of the assay: non-competitive ELISA, rEGFRvIIIex coated at 1.25 mg/L; antibody concentration at half-maximal OD.
Experimental: as §1

B1: monoclonal antibody 12H23 (antibody, V domains shown)
VH: DVQLQESGPGLVKPSQSLSLTCTVTAYSVTSDYAWNWIRQFPGNKLEWMGYISYSGTTRYNPSLKSRISITRDTSKNQFFLQLNSMTAEDTATYYCSRQGRGFPYWGQGTLVTVSA
VL: DILMTQSPSSMSVSLGDTVSITCHASQDINSNIGWLQQKPGKSFKGLIYHGTNLEDGVPSRFSGSGSGADYSLTISSLESEDFADYYCVQYAQFPWTFGGGTKLEIKR
notes: also called murine monoclonal antibody 12H23; clone 12H23
Broadly, the Kd is the concentration at which binding is half-saturated. As usually defined, the EC50 is the midpoint of the concentration-response curve. As for B1, the Ka in assay [1] was found to be 3.8e+10 M⁻¹. For the same molecule, the Kd in assay [2] was 26 pM. Also, the EC50 in assay [3] is 2 ng/mL; in assay [4], 0.0025 µg/mL and 0.017 nM; in assay [5], 0.003 µg/mL and 0.02 nM; in assay [6], 0.0023 µg/mL and 0.015 nM.
